According to the supplement of paper PMC9170038:

System: MS2 coat protein
Assay: apparent KD of MS2 coat protein; higher = weaker reporter binding
Details: Eterna round: R107
Method in brief: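 Each design's apparent KD comes from the median of binding-curve fits to its normalised clusters. Those clusters carried RNA switches transcribed on-chip from Illumina sequencing clusters. SNAP-549-labelled MS2 coat protein was titrated onto them in twofold steps (0.7 or 1.5 nM to 3 µM; per step 0.8–1.5 h down to 10–20 min). Conditions were 100 mM Tris-HCl pH 7.5, 80 mM KCl, 4 mM MgCl2, without or with constant ligand.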

[1] = input ligand: theophylline 20 uM
[2] = input ligand: theophylline 2 mM
[3] = input ligand: tryptophan 2.4 mM

Row | Sequence | apparent KD of MS2 coat protein (input ligand: arginine 13.2 mM) [nM] | apparent KD of MS2 coat protein [1] [nM] | apparent KD of MS2 coat protein [2] [nM] | apparent KD of MS2 coat protein (input ligand: none) [nM] | apparent KD of MS2 coat protein [3] [nM]
1 | GGGCGCGUGGACCGGCGUGCUCCGCUCCGUCGAGGACCGGUACGGCCGCCACUCGACAUGAGGAUCACCCAUGUGUGAGCUCGCG [#1 Exclusion - Tryptophan A Attempt #16 (HarryS)] | 22.5 | 63.6 | 80 | – | –
2 | GGGUAAGAUCCGGAUACCAGCGAACAUGAGGAUCACCCAUGUGACCUAAGAUAGGCUAAACGCCCUUGGCAGCCGAGAUAGCGUU [Same State Theophylline B GF 6] | 27.2 | 34.2 | 30.7 | 41.3 | 39.5
3 | GGGUACAUCGCGGCCGCCACUCAUGUAAAUUCAUGAGGAUCACCCAUGACGAUGGAGACAUCGGAGAGGACCGGGUGAUGUACCG | 26.5 | 23 | 20.8 | 16.8 | 16.8
4 | GGGUACAUCGCGGCCGCCACUGAUGUAAAUACAUGAGGAUCACCCAUGUCGAUGGAGACAUCGGCCAGGACCGGGUGAUGUACCG | 13.1 | 24.1 | 16.5 | 14 | 11.6
5 | GGGUACAUCGCGGCCGCCACUUAUGUAAAUACAUGAGGAUCACCCAUGUCGAUGGAGACAUCGGAGAGGACCGGGUGAUGUACCG | 28.2 | 41.6 | 48 | – | –
6 | GGGUGGUAGGCGGCCGCCACUGAUUUUUAUAUAUAUAUGACAUGAGGAUCACCCAUGUAGAUAUGCAGGACCGGGCCUGUUGUUU [aaaN] | 22.4 | 28.2 | 22 | 22.2 | 28.3
7 | GGUCGCCAACAUGGGUGGGCGACCCUGGAAGGAGCGAGCGAGAGCUCAGGUAGGUCGCCAGAACAUGAGGAUCACCCAUGUAAUA [(A)''-(M)'-(A)'(Arg1)-(Arg2)-(M1)-(M2)_Design13] | 70.8 | 162 | 70.3 | 44.5 | 59.6
8 | GGUCGCCAACAUGGGUGGGUGACCCUGGAAGGAGCGAGCGAGAGCUCAGGUAGGUCGCCAGAACAUGAGGAUCACCCAUGUAAUA [(A)''-(M)'-(A)'(Arg1)-(Arg2)-(M1)-(M2)_Design14] | 38.3 | 90 | 139 | 63.5 | 65.8
9 | GGUGGCGUGACGGAUACCAGCCACCGCCGCAAGGCAACAUGAGGAUCACCCAUGUUGGGUGGCCCUUGGCAGCUGUCGUGCGGCG [#1 Same State - Theophylline B Attempt #22 (HarryS)] | 13.3 | 151 | 159 | 195 | 50.2
10 | GGUGGCUGGACUGAUACCAGCCACCACCGAUAGACCACAUGAGGAUCACCCAUGUUGGGUGGCCCUUGGCAGCAGUCCAGCUGCC [#1 Same State - Theophylline B Attempt #10 (HarryS)] | 152 | 374 | 2990 | 607 | 873
11 | GGUUACUCUACGGCCGCCACUGAUAAAUAAUAAACCUGUACAUAAACAUGAGGAUCACCCAUGUACAGGACCGGGUAGUGUAACC [Tryptophan B 7] | 30.5 | 41.2 | 34.7 | – | –
12 | GGUUACUCUACGGCCGCCACUGAUUAUUUAUAGUCCUGUACAUAAACAUGAGGAUCACCCAUGUACAGGACCGGGUAGUGUAACC [Tryptophan B 12] | 28.5 | 53.9 | 40.6 | – | –
13 | GGUUACUCUACGGCCGCCACUGGGCAUGUAAAUAACAUGAGGAUCACCCAUGUGGAUUAAUAUUACAGGACCGGGUAGUGUAACC [Tryptophan B 23] | 126 | 253 | 384 | 279 | 25.1
14 | GGUUACUCUACGGCCGCCACUGUAAAGUAAAUAUUAAUGUACAUGACAUGAGGAUCACCCAUGUACAGGACCGGGUAGUGUAACC [Tryptophan B 14] | 45.5 | 56.5 | 46.5 | – | –
15 | GUAGCGACGACGGCCGCCACUCACAGGUGAGGGUAGACCAACCUUCACAUGAGGAUCACCCAUGUGAGGACCGGGUUGUCGGUAC [#11 Exclusion Tryptophan B] | 50.9 | 95.5 | 111 | 134 | 146
16 | GUAGCGACGGCGGCCGCCACUCACAGGUGAGGGUAGACCAACCUUCACAUGAGGAUCACCCAUGUGAGGACCGGGCUGUCGCUAC [#13 Exclusion Tryptophan B] | 36.3 | 117 | 122 | – | –
17 | GUAUACAUGAGGAUCACCCAUGUGCCAGAAGGAGCGCUGGAAACGGCAGGUAGGUCGCUGGUAGGUCCUCUAUCUAGACGUUCGG [#17 Exclusion - Arginine A] | 52.6 | 188 | 188 | 97.5 | 60.3
18 | GUAUCGACAUGAGGAUCACCCAUGUCCGAAGGAGCGUUGGGAACAACAGGUAGGUCGCGGACAUAGAGCAUCCGGAAACGGAUGC [EAA NP+V+V2 #1] | 10.1 | 16.4 | 34.3 | 14 | 13.9
19 | GUAUCUAUGUGAAAUAGAUAUGUAACUGAAGGAGCGUCAUUAAGGACAGGUAGGUCGCGGAGCACAUGAGGAUCACCCAUGUCGG [#09 Same State - Arginine A] | 24.7 | 31.1 | 35.5 | 42.1 | 34.3

Row | Sequence | apparent KD of MS2 coat protein (input ligand: arginine 13.2 mM) [nM] | apparent KD of MS2 coat protein [1] [nM] | apparent KD of MS2 coat protein [2] [nM] | apparent KD of MS2 coat protein (input ligand: none) [nM] | apparent KD of MS2 coat protein [3] [nM]
20 | GUAUUACGGACGGCCGCCACUGUGGGACAUGAGGAUCACCCAUGUGGCGCUACUUACAAGUGCGACAGGACCGGGUCAUGGUUUG [theeternabot_sameState_MS2_Trp_B_1] | 152 | 732 | 783 | – | –
21 | GUCCUAGCGAGCACUCGCUAGGACGCGGAUACCAGCGAGGUCCAUCGCCCUUGGCAGCCGAACAUGAGGAUCACCCAUGUCGGUA [#1 Same State - Theophylline A Attempt #17 (HarryS)] | 12.6 | 13.2 | 18 | 10 | 9.86
22 | GUCCUCAGCCGAAGGAGCGCUAGAAGAUGACAUGAGGAUCACCCAUGUGUGUGAUGUGGCUAGCAGGUAGGUCGCGGAGAGGAUU [Exclusion - Arginine B (Freestyle 16)] | 19.8 | 37.1 | 28 | 22.9 | 20.6
23 | GUUAUUAGAAAACUAAUAACAGUGGGUGAACGAGGACCGGUACGGCCGCCACUCGGACAUGAGGAUCACCCAUGUCCAUGUGAAA [AstrosExyTryA#4] | 12.1 | 15.8 | 16.5 | – | –
24 | GUUGGAUUCUCGGCCGCCACUGAGAGAGUCAUGUGAACAUGAGGAUCACCCAUGUAAUAUAUAUACAGGACCGGGAGGGUUGUAA [4.K] | 21.9 | 35.8 | 22.6 | 20.2 | 14.8
25 | UAAAACAUGAGGAUCACCCAUGUAAUUGAUACCAGAGUGAUGAUCCUCCCUUGGCAGCAAAACGCUGAUUGAUUACAAUCAGCGA [Mat - Same State Theophlline A - Mod of Eli - D24] | 36.8 | 169 | – | – | 42.5
26 | UAAACUACACAUGAGGAUCACCCAUGUGGCCGAGGACCGGUACGGCCGCCACUCGUGUGUUAAUAAAAGAACUGCAAGAUUCUUU [Issoraor] | 78.3 | 220 | 396 | – | –
27 | UAAUAGAUUACGGCCGCCACUGAAGUGGACUUUAUGAGCAGGAUUCACAUGAGGAUCACCCAUGUCAGGACCGGGUACGUCCAUA [theeternabot_exclusion_MS2_Trp_B_33] | 25.6 | 44 | 44.3 | – | –
28 | UACCGGUGACUCGAUACCAGUCCUCUAAAAUACAUGAGGAUCACCCAUGUAACCUUCCCAGACCCUUGGCAGCGACACAUGGAUA [theeternabot_sameState_MS2_Theo_B_49] | 97.7 | 176 | – | – | 147
29 | UAGGACAUGAGGAUCACCCAUGUUGUACGGCGAGGACCGGUACGGCCGCCACUCGAGGCGUAAGUAGUAAAGAAUCUGAUUCAAU [theeternabot_sameState_MS2_Trp_A_4] | 13.7 | 40.9 | 20.7 | – | –
30 | UAUAAACAGCCUGGUUACUCGUCGCGCUUGCGAGGACCGGUACGGCCGCCACUCGACCCAUCACAUGAGGAUCACCCAUGUCCCA [theeternabot_exclusion_MS2_Trp_A_25] | 29.4 | 45 | 38.6 | – | –
31 | UAUACAUGAGGAUCACCCAUGUGCCAUGAUACCAGACAUGAAAAUGUCCCUUGGCAGCAUGGUGAUUGUAUAGCGGGAAACCCGA [Utechov] | 81.3 | 261 | – | – | 138
32 | UAUAUAGAUGGAAGUUCUAUAGAUGCAGAAGGAGCGUAGGAAACUACAGGUAGGUCGCUGAGGUACAUGAGGAUCACCCAUGUAG [SSArg A #20 Slice of Pi] | 14.3 | 40.5 | 26.4 | 26.4 | 22.5
33 | UAUAUAUAGAUGGAUACCAGCAGAGAAAACGUUUAUCCUAACAUGAGGAUCACCCAUGUAUGCCCUUGGCAGCUGUUUAUAUAUA [8.I] | 18.9 | 31.5 | – | – | 22.6
34 | UAUAUAUAUCACGAACUGUGGUGUAUGUCUCGAGGACCGGUACGGCCGCCACUCGCGCGGCCUCACAUGAGGAUCACCCAUGUUG [XTryp A #6] | 27.9 | 73.7 | 78.5 | – | –
35 | UAUCCACAUGAGGAUCACCCAUGUAAGGAAGGAGCGGUGAAUGAACCAGGUAGGUCGCCUUGGUGAGGAUCAUCUAUGGAUUCGU [Exclusion - Arginine A (Freestyle 10)] | 28 | 65.9 | 43.5 | 36.8 | 41.8
36 | UAUCCACAUGAGGAUCACCCAUGUUAGGAAGGAGCGGUGAAUGCACCAGGUAGGUCGCCUAGCUGAGGACUGUCGGUGGAUUCGU [Exclusion - Arginine A (Freestyle 19)] | 33 | 47 | 53 | 39.4 | 40.3
37 | UCACAUGAGGAUCACCCAUGUACAGGCGAUACCAGCCGUACAUUGGGCCCUUGGCAGCGCACCGAGACCUUUAUAAGCACCUCGG [Zaoranorre] | 67 | 207 | – | – | 15.7
